One experiment has as its target GST-FBXO22-SKP1 (human) (UniProt Q8NEZ5). As to the kind of experiment: BLI; Octet Red 96, anti-GST probes loaded with 200 nM GST-FBXO22-SKP1, BACH1-BTB as analyte, 30°C; 25 mM HEPES pH 7.4, 100 mM NaCl, 1 mM TCEP, 0.1% Tween-20, 0.05 mg/mL BSA; Kd from steady-state equilibrium. For orientation: BLI is a label-free optical method that tracks binding on a fibre tip over time.

The target in experiment [1] is Tag-free FBXO22-SKP1 complex (human) (UniProt Q8NEZ5). The experiment can be described thus: SEC-MALS; Superdex 200 10/300 GL, 20 mM Tris-HCl pH 8.0, 150 mM NaCl, 0.25 mM TCEP, room temperature; tag-free FBXO22-SKP1, His-BACH1-BTB and their mixture.
Tag-free FBXO22-SKP1 complex (human), sequence (Q8NEZ5 whole entry, chain 1 of 2): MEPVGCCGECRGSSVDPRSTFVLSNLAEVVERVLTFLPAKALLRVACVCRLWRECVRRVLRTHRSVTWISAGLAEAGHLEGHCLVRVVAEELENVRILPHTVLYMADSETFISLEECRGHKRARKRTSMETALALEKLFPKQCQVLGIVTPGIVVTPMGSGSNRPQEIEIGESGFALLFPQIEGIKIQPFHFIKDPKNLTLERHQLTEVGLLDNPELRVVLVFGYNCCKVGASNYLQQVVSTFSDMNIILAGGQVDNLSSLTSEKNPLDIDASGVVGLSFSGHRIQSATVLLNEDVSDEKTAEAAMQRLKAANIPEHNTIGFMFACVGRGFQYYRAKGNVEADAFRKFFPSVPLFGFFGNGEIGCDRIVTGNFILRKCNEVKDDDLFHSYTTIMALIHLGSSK
Tag-free FBXO22-SKP1 complex (human), sequence (P63208 whole entry, chain 2 of 2, further chain): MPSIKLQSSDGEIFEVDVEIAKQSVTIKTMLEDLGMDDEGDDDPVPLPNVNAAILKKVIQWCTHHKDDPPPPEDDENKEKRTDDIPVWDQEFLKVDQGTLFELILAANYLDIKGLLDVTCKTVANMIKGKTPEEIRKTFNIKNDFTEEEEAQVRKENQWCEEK

GST-FBXO22-SKP1 (human), sequence (Q8NEZ5 whole entry, chain 1 of 2): as the sequence (Q8NEZ5 whole entry, chain 1 of 2) above
GST-FBXO22-SKP1 (human), sequence (P63208 whole entry, chain 2 of 2, further chain): as the sequence (P63208 whole entry, chain 2 of 2, further chain) above
His-BACH1-BTB, sequence (O14867 7-128): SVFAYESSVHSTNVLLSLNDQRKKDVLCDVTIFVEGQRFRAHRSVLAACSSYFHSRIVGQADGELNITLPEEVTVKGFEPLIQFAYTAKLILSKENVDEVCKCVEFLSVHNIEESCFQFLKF
BACH1 BTB domain, sequence (O14867 7-128): as above

Turning to “BACH1 BTB domain (from UniProt O14867 7-128) (domain or fragment)”, the Kd (commonly the equilibrium constant for the complex coming apart) in the experiment with GST-FBXO22-SKP1 (human) worked out at 90 nM.

Take “His-BACH1-BTB (from UniProt O14867 7-128) (domain or fragment)”: in experiment [1], the stoichiometry N (FBXO22-SKP1 per BACH1 BTB dimer) was 1.

(Values after doi:10.1101/2024.06.03.594717.)
